These results are taken from the nanobody polyreactivity screen of Harvey et al. (2022).

This series is described as follows: yeast display, Sf9 membrane polyspecificity reagent, FACS + sequencing; frameworks hold sequencing errors. An outline of the steps: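 In a synthetic yeast display library (Saccharomyces cerevisiae BJ5465), nanobody expression was induced with galactose for 36–48 hours. FACS gates were set low and high (top ~1%) using anti-HA fluorescence for expression and streptavidin fluorescence for binding of the Sf9 membrane reagent. Each polyreactivity label is drawn from the gate of origin.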
As for “QVQLVESGGGLDQAGGSLPLRCAATGSIFHDYALGWYSQAPGKERELVAVISTSGGSTYYADSVKGRFTISRDNAKNTVYLQMNSLKPEDTAVYYCNAELSFWALGYDYWGQGTQVTVSS”, the “polyreactivity (PSR sort gate)” value was “low polyreactivity”.
The entry for “QVQLVESGGGLVQAGGSLRLSCSASGSIFGRKMGWYRQAPVKERELVAAITWSGGRTYYADSVKGRFTISRDNAKNTVYLLMNCLKPEDTAVYYCNAVRRYTGYAFKDDYWGQGNQVTVSS” is “high polyreactivity”; for “QGQLVESGGGLVQAGGSLRLSCAASGRIFEFNARGWYRQAPGKERELVAANSRSGGSTYYADSVKGRFTISRDKAKNTVYLQMNTQKPEHTAVYYCNAVYHYYPLYYWKYGYWGQGTQVTVSS” it is “low polyreactivity”.
In the case of “QVQLVESGGGLVQAGGSLRLSCAASGRIFRRNAMGWYRQAPGKERELVAAISTRGSSTYYADSVKGRFTISRDNAKNTVYLQMNSLKPEDTAVYYCAADAYFIYSRYWYDYWGQGTQVTVSS”, the “polyreactivity (PSR sort gate)” value is given as “high polyreactivity”.
As for “QVQLVESGGGLVQAGGSLRLSCAASGSIFYKYMGWYRQAPGKERELVAAITWSGGSTYYADSVKGRFTISRDNAKNTVYLQMNSLKPEDTAVYYCNADDRHSRVGHSWQDAQFDYWGLGTQVTVSS”, the entry is “high polyreactivity”; as for “QVQLVESGGGLVQAGGSLRLSCAASGFTFETNAMGWYRQEPGQERELVAAISYSGGSTYYADSVKGRFTISRDNAKNTVYLQMNSLKPEDNAVYYCNKYYRGIFKAHRDYWGQGTQVTVSS”, “low polyreactivity”.
The entry for “QVQLVESGGGLVQAGGSLRLSCAASGRTFGIYAMGWYRQAPGKERELVAAITGRGGSTHYADSVKGRFSISRDNAKNTVYLQMNSLKPEDTAVYYCAADYRYNRGITSNKDYDYWGQGTQVTVSS” is “low polyreactivity”; for “QDQLVESGGGLVQAGGSLRLSCAASGITFNRYAMGWYRQAPGKERELVAAISRTGGSTYYADSVKARFTISRDNAKNTVYLQMNSLKPEDTAVYYCASRYTKGMYYWGQVTQVTVSS” it is “high polyreactivity”; for “QVQLVESGGGLVQAGGSLRLSCAASGHIFYAYAMGWYRQAPGKERELVASITYRGVSTYYADSVKGRFTISRDNAKNTVYLQMNSLKPEDTAVYYCAAGRSRYLWFGRDFDYWGQGTQVTVSS” it is “low polyreactivity”.
As for “QVQLVESGGGLVQAGGSLRLSCAASGSTFFEYTMGWYRQAPGKEREFVADIRGRDGSTSYADSVKGRFTISRDNAKNTVYLQMNSLKPEDTAVYYCAADVSDWWSFGNDSWGQGTQVTVSS”, the entry is “low polyreactivity”; as for “QVQLVESRGGLVQAGCSLRLSSAASGLIFYFYTMGWYRQAPGKERELVDSIRSGDSTNYADSVKGRFTISRDNAKNTVYLQMNSLKPEDTAVYYCNARYRYPYYLSVAEKYDYWGQGTQVTVSS”, “high polyreactivity”; as for “QVQLVESGGGLVQAGGSLRLSCAASGLTFPWYAMGWYRQAPGKERELVAGISWSGGSTYYADSVKGRFTNSRDNAKNTVYLQMNSLKPEDTAVYYCKLVKTTSTLGKRRYDYWGQGTQVTVSS”, “high polyreactivity”.
For the sequence “QVQLVESGGGLVQEGGSLRLSCAASGSTFRFYAMGWYRQAPGKERELVAVISFNDGSTYYADSVTGRFTISRDNAKNTVYLQMNSLKPEDSAVYSCATDELDSWWNEYEYWGQGTQVTVSS”, the “polyreactivity (PSR sort gate)” value is listed as “low polyreactivity”.
The entry for “QVQLVESGAGLVQAGGSLRLSCAACGSTFRGNAMGWYRQAPGKEREFVASISRRGGRTNYADSVKGRFTISRDNAKNTVYLQMNSLKPEDTAVYYCAATTVPLGDYWGQGTQVTVSS” is “high polyreactivity”; for “QVQLVESGGGLVQAGGSLRLSCAASGSTLRRYAMGWYRQAPGKERDLVAAITSRGTDTYYADSVKGRFTISRDNAKNTVYLQMNSLKPEDTAVYYCAASWVAGGHYGYDYWGQGTQVTVSS” it is “high polyreactivity”.
As for “QVQLVESGGGLVQAGGSLRLSCAASGRTFNVYAMGWYRQAPGKERELVASISSSDTTNYADSVKGRFTISRDNAKNTVYIQMNSLKPEDTAVYYCAADYTPDLLSKVDYWGQGTQVTVSS”, the entry is “low polyreactivity”; as for “QVQLVESGGGLVQAGGSLRLSCAASGRTFTYYAMGWYIQAPGKERELVAAISSGGRTYYADSVKGRFTISRDNAKNTVYLQMNSLKPEDTAVYYCAADAYRSPWRLYGSRFGYWGQGTQVTVSS”, “high polyreactivity”.
The entry for “QVQLEESGGGLVQAGGSLRLSCAASGSIFDVYAIGWYRQAPGKERELVAGINSAGSTYYADSVKGRFTISRDNAKNTVYLQMNSLKPEDSAVYYCAAREYILTPGYQWYTYRGYDYWGQGTQVTVSS” is “low polyreactivity”; for “QVKLVDTGGGLVKAGGSLLLSCAASGSPFVWYGMGWYRQSHGKEREFDAAISTSGGRTYYADSVKGRFTISRDNAKNTVYLQMNSLKPEDTAVYYCARQPRLYFKGKLYGYWGQGTQVTVSS” it is “high polyreactivity”; for “QVQLVESGGGLVQAGGSLRLSCAASGSIFPLYAMGWYRQAPGKERELDASITWSAGNTHYADSVKGRFTISRDNAKNTVYLQMNSLKPEDTAVYYCAADDLWLYYVDDLPINDFDYWGQGTQVTVSS” it is “low polyreactivity”.
“QVQLVESGGGLVQAGGSLRLSCAASGSIFNTIALGWYRQAPGKESELVASISSDGGTNYADSLKGRFTISRDNAKNTVYLQMNRLKPEDTAVYACATTQEYSGQRTPGYDYWGQVTQVTVSS”: the “polyreactivity (PSR sort gate)” value is on record as “low polyreactivity”.
As for “QVQLVESGGGLVQAGGSLRLSCAASGSIFDYYALGWYRQAPGKERELVATITSGVSTYYADSVKGRFTISRDNAKNTVYLQMNSLKPEDTAVYYCARDYAKSQDLYKYDYWGQGTQVTLSS”, the entry is “low polyreactivity”; as for “QVQLVESGGGLVQAGGSLRLSCAASGFIFDRYAMGWSRQAPGKERELVAAITGSGGSTYYADSVKGRFTISRDNAKNTVYFQMNSLKPEDTAVYYSAAESYDYFALFYVSIPYYYWGQGTQVTVSS”, “high polyreactivity”.
As for “QVHRVVSGGGLVQAGGSLRLSCSAYGFTFYLYAMGWYRQAPGKERELVAAISSGTSTYYADSVKGRFTISRDNAKNTVYLQMNSLKPEDTAVYYCDAATNWGGEYWGHGTQVTVSS”, the entry is “high polyreactivity”; as for “QVQLVESGGGLVQAGGSLRLSCAASGSTFHYAMGWYRPAPGKERELVAAITYGGGRTFYADSVKGRFTISRDNAKNTVYLQMNSLKPEDTAVYYCAKVVYYYGRGWTDYRSTMDSWGQGTQVTVSS”, “low polyreactivity”.
As for “QVQLVESGGGLDQAGGSLRLSCAASGFIYPVYTMGGYRQAPGKERELVAAITQIGGSTHYADTVKGRFTISRDNAKNTVYLQMNSLKPDETAVYYCNAVPSYGTEYDYWGHGTQVTVSS”, the entry is “low polyreactivity”.
Take “QVQLVESGGGLVQAGGSLRLSCAASGSILGTYAMGWYRQAPGKERELVAAITLSTDGTYYADSVKGRFTISRDNAKNTVYLQMNSLKPEDTAVDYCAAPWNWRWVTQWGYYVRADYFWGQGTQVTVSS”: the “polyreactivity (PSR sort gate)” value is “low polyreactivity”.
As for “QVQLVESGGGLDQAGGSLRLTCAATGRIILGYAMGWYRQAPGKEREFVAANSRGGTSTYYADSVKGRFTISRDNAKNTVYLQMNSLKPEDTAVYYCAVDVPPYRLVRNYYEYDYWGQGTQVTVSS”, the entry is “high polyreactivity”; as for “QVQLVESGGGLVQAGGSLRLSCAASGSTFGPNAMGWYRQAPGKERELVAAIRSNGGRTYYADSVKGRFTISRDNAKNSVYLQMNSLKPEDTAVYYCAAPHYPYDTPYGYWGQGTQVTVSS”, “low polyreactivity”; as for “QVQLVESGGGLVQAGGSLRLSCAASGYTFRAYVMGWYRQAPGKERELVAGITRRGGTTYYADSVKGRFTISRDNAKNTVYLQMNSLKTEDTAVYYCNAVYRSGSIPYDSWGQGTQVTVSS”, “high polyreactivity”.
As for “QVQLVESGGGLVQAGGSLRLSCAASGIIFRGYPMGWYRQAPGKERELVARISITGGRTYYADSVKGRFTSSRDNAKNTVELQMNSLKPEDTAVYYCAAGKYVSTVRYDYWGQGTQVTVAS”, the “polyreactivity (PSR sort gate)” value is given as “high polyreactivity”.
As for “QVQLVESGGGLVQAGGSLRLSCAASGSLFRYYVMGWYRQAPGKERELVAAISSRGGSTYYADSVKGRFTISRDNAKNSVYLLMNSLKPEDTAFYYCAARFGGWDRGLDYWGQGTLVTVSS”, the entry is “high polyreactivity”.
The entry for “QVQLVESGGGLVQAGGSLRLSCAASGSTFYWYAMGGYRQAPGKERELVAAISGSGGRTYYADSVKGRFTISRDNAKNTVYLQMYSLKPEDTAGYYCAADTKFYNYYYWGQGTQVTVSS” is “high polyreactivity”; for “QVQLVESGGGLVQAGGSLRLSCAASGSTFPYYAMGWYRQAPGKEMELVASIRKRGGGTYYADSVKGRFTISRDNAKNTVYLQMNSLKPEDTAVYYCAVRVYQFRYTGYDYWGQGTQVTVSS” it is “high polyreactivity”; for “QVQLVESGGGLVQAGGSLRLSCAASGSIFDSYVMGCYRQAPGTERELVAAITYSGGSTYADSVKGRFTISRDNAKNTVYLQMNSLKPEDTAVYYCAADYYRGRYSYRYDYWGQGTQVTVSS” it is “low polyreactivity”.
As for “QVQLVESVVGLVQAGGSLRLSSAASGGTFSENAMGWYRQAPGKERELVAAITWSVGNTYADSVKGLFTISRDNAKNTVYLQMNSLKPEDTAVYYCAKDFSVPAYDYWGLGTQVTVSS”, the entry is “low polyreactivity”; as for “QVQLVESGGGLVQAGGSLRLSCAASGSIFPVNAMGWSRQAPGKERELVATITWRGGRTYYADSVKGRFTISRDNAKNTVYLQMNSLKPEDTAVYYCAARLLYRHFGYWGQGTQVTVSS”, “high polyreactivity”.
In the case of “QVQLVESGGGLVQAGGSLRLSCDASGITYHNYAMGWYRQAPGKEREYVAAITRNTASSYYADSVKGRFSISRDKAKNTVYFQMNSLKPEDTAVYYCAATDKKHRTAYDSWGQGTQVTVSS”, the “polyreactivity (PSR sort gate)” value is recorded as “low polyreactivity”.
The entry for “QVQLVESGGGLVQAGGSLRLSCAASGSIFGYYAMGWYRQARGNERELGAAIRSTGSTNYADSVKGRFTISRDNAQNTVYLQMNSLKPEDTAVYYCAAGDITGGSGNWVVTPYDYGGQGTQVTVSS” is “high polyreactivity”; for “QVQLVESGGGLVQAGGSLRLSCAASGRTFQGYTMGWYRQAPGKERELVAAITGGVGSTYYADSVKGRFTISRDNAKNTVYLQMNSLKPEDTAVYYCNTVSYGYTDLYIFYTGYYYWGQGTQVTVSS” it is “low polyreactivity”.
